Test results as given in PMC6882556, “Cryo-EM structure of the KvAP channel reveals a non-domain-swapped voltage sensor topology” (eLife, 2019).

Target: the molecule itself
Experiment: cryo-EM structure; KvAP(12-282) tetramer purified as a complex with 6E1 Fab; 20 mM Tris-HCl pH 8.0, 150 mM KCl, 0.06% digitonin; C4 symmetry applied; final map ~5.9 Å

B1: KvAP, voltage-gated K+ channel from Aeropyrum pernix (residues 12-282) (natural protein, UniProt Q9YDF8 25-295, looked up)
chain: GGRVRNIGDVMEHPLVELGVSYAALLSVIVVVVEYTMQLSGEYLVRLYLVDLILVIILWADYAYRAYKSGDPAGYVKKTLYEIPALVPAGLLALIEGHLAGLGLFRLVRLLRFLRILLIISRGSKFLSAIADAADKIRFYHLFGAVMLTVLYGAFAIYIVEYPDPNSSIKSVFDALWWAVVTATTVGYGDVVPATPIGKVIGIAVMLTGISALTLLIGTVSNMFQKILVGEPEPSCSPAKLAEMVSSMSEEEFEEFVRTLKNLRRLENSMK
notes: KvAP, voltage-gated potassium channel of Aeropyrum pernix, residues 12-282; In the cryo-EM sample the tetramer carried 6E1 Fab fragments on its voltage sensors; also called KvAP tetramer
- stoichiometry N: 4
